Reference: patent US6670147

Key:
[1] = molecular target: nonmutated (wild-type) FX (UniProt P00742); assay: cell-based or functional assay
[2] = molecular target: mutated factor X (human FX in which amino acid 194 has been mutated from Arg to Tyr) (human) (UniProt P00742); assay: cell-based or functional assay

| coagulation time (recalcification time in FX-deficient plasma) [2] [s] | Substance | coagulation time (recalcification time in FX-deficient plasma) [1] [s] |
| --- | --- | --- |
|  | Russel's viper venom (RVV) | 50 |
| 50 | prostate-specific antigen (PSA) (from UniProt P07288 25-261) (enzyme) |  |
